Data set [1] concerns streptokinase-human plasminogen activator complex. Nature of the data set: Residual enzyme activity of acylated streptokinase-human plasminogen activator complex. It is filed as biochemical. The note with it: freeze-dried powder. Here is the method: (§1) The time for which the reaction is allowed to proceed depends upon the blocking reagent employed, the temperature at which the reaction is carried out and the enzyme selected for blocking. The optimum time period for any particular circumstances may be selected by following the decrease in enzymic activity by incubating aliquots with a chromogenic or fluorogenic substrate.

Data set [2] deals with radio-labelled clot in the inferior vena cava. Nature of the data set: In vivo fibrinolytic enzyme test: radio-labelled clot in the inferior vena cava of the rabbit. More on the design: species or system New Zealand white rabbit. As to conditions: systemic infusion, blood radioactivity at least twice background within six hours without death. From the text:
The agent under test is introduced into the bloodstream at a point where it must pass through the heart to ensure that the agent will be thoroughly mixed with venous blood. Non-specific lytic enzymes attack blood proteins and cause death before any lysis of the clot is observed. Enzymes which have a degree of specificity for fibrin lyse the clot at a dose lower than the lethal dose.
A New Zealand white rabbit (2.5-3.5 kg) is anaesthetised and three cannulas are inserted into the anterior facial vein (referred to as cannula 1 in this description), the left carotid artery (referred to as cannula 2) and the left external iliac vein (referred to as cannula 3). […] The quantity of 50 μl is determined arbitrarily, and represents an amount between the minimum quantity which can be measured accurately and the maximum quantity which can be injected without excessive disturbance of physiological conditions within the isolated vein portion. […] The first swab is transferred to a counting vial, and the level of γ -radiation is measured. […]
Constriction is required in order to prevent dislodgement of the clot. […] A second blood sample (P10) is withdrawn into citrate buffer as above and counted as previously described ten minutes after Po This count is made to check that no additional radio-activity has been washed into the bloodstream, thereby giving an indication of the stability of the clot. […]

Data set [3] has as its system Porcine Plasmin. Nature of the data set: Residual enzyme activity of blocked porcine plasmin versus original enzyme. It is filed as biochemical. As to conditions: after acylation and dialysis. As for the experimental part: as §1
In data set [4] the test system is Porcine Plasmin. Nature of the data set: Deacylation (hydrolysis) of active-site blocked porcine plasmin, pseudo-first order rate constant followed by regain of activity on chromogenic substrate. It is filed as biochemical. As for the experimental part:
The pseudo-first order rate constant is determined by hydrolysing the enzyme derivative under physiological conditions i.e. in isotonic aqueous media at pH 7.4 and at 37° C. At regular intervals aliquots are withdrawn and incubated with a chromogenic or fluorogenic protease substrate such as S-2251 (H-D-Val-Leu-Lys-p-nitroanilide 2HCl) and the rate of conversion of the substrate measured.
The hydrolysis is followed until such time as the rate of conversion of substrate reaches a maximum. The rate constant k is then calculated by plotting: […]
loge (1-^At /Amax) against t
where Amax the maximum rate at which an aliquot converts substrate and At is the rate at which an aliquot converts substrate at time t.

For the molecule “p-Anisoyl Streptokinase-Human Plasminogen Activator Complex [Example 26]”, in data set [1], the “remaining share of the original enzyme activity” value is reported as “less than 5%”.

B1: human plasmin: free proteolytic enzyme, in vivo fibrinolytic enzyme (protein, UniProt P00747 20-580; P00747 581-810, looked up)
Plasmin heavy chain A: EPLDDYVNTQGASLFSVTKKQLGAGSIEECAAKCEEDEEFTCRAFQYHSKEQQCVIMAENRKSSIIIRMRDVVLFEKKVYLSECKTGNGKNYRGTMSKTKNGITCQKWSSTSPHRPRFSPATHPSEGLEENYCRNPDNDPQGPWCYTTDPEKRYDYCDILECEEECMHCSGENYDGKISKTMSGLECQAWDSQSPHAHGYIPSKFPNKNLKKNYCRNPDRELRPWCFTTDPNKRWELCDIPRCTTPPPSSGPTYQCLKGTGENYRGNVAVTVSGHTCQHWSAQTPHTHNRTPENFPCKNLDENYCRNPDGKRAPWCHTTNSQVRWEYCKIPSCDSSPVSTEQLAPTAPPELTPVVQDCYHGDGQSYRGTSSTTTTGKKCQSWSSMTPHRHQKTPENYPNAGLTMNYCRNPDADKGPWCFTTDPSVRWEYCNLKKCSGTEASVVAPPPVVLLPDVETPSEEDCMFGNGKGYRGKRATTVTGTPCQDWAAQEPHRHSIFTPETNPRAGLEKNYCRNPDGDVGGPWCYTTNPRKLYDYCDVPQCAAPSFDCGKPQVEPKKCPGR
Plasmin light chain B: VVGGCVAHPHSWPWQVSLRTRFGMHFCGGTLISPEWVLTAAHCLEKSPRPSSYKVILGAHQEVNLEPHVQEIEVSRLFLEPTRKDIALLKLSSPAVITDKVIPACLPSPNYVVADRTECFITGWGETQGTFGAGLLKEAQLPVIENKVCNRYEFLNGRVQSTELCAGHLAGGTDSCQGDSGGPLVCFEKDKYILQGVTSWGLGCARPNKPGVYVRVSRFVTWIEGVMRNN
modifications: Plasmin
On to B1, for which the “dose giving a positive result in the in vivo fibrinolytic test” value in data set [2] is given as 1×10^-7 to 5×10^-6 mol of active catalytic sites per kg of test animal.

B2: Trans-Cinnamoyl Porcine Plasmin (protein, UniProt P06867 20-579; P06867 580-809, looked up)
Plasmin heavy chain A: DSLDDYVNTQGAFLFSLSRKQVAARSVEECAAKCEAETNFICRAFQYHSKDQQCVVMAENSKTSPIARMRDVVLFEKRIYLSECKTGNGKNYRGTTSKTKSGVICQKWSVSSPHIPKYSPEKFPLAGLEENYCRNPDNDEKGPWCYTTDPETRFDYCDIPECEDECMHCSGEHYEGKISKTMSGIECQSWGSQSPHAHGYLPSKFPNKNLKMNYCRNPDGEPRPWCFTTDPNKRWEFCDIPRCTTPPPTSGPTYQCLKGRGENYRGTVSVTASGHTCQRWSAQSPHKHNRTPENFPCKNLEENYCRNPDGETAPWCYTTDSEVRWDYCKIPSCGSSTTSTEYLDAPVPPEQTPVAQDCYRGNGESYRGTSSTTITGRKCQSWVSMTPHRHEKTPGNFPNAGLTMNYCRNPDADKSPWCYTTDPRVRWEYCNLKKCSETEQQVTNFPAIAQVPSVEDLSEDCMFGNGKRYRGKRATTVAGVPCQEWAAQEPHRHSIFTPETNPRAGLEKNYCRNPDGDDNGPWCYTTNPQKLFDYCDVPQCVTSSFDCGKPKVEPKKCPAR
Plasmin light chain B: VVGGCVSIPHSWPWQISLRHRYGGHFCGGTLISPEWVLTAKHCLEKSSSPSSYKVILGAHEEYHLGEGVQEIDVSKLFKEPSEADIALLKLSSPAIITDKVIPACLPTPNYVVADRTACYITGWGETKGTYGAGLLKEARLPVIENKVCNRYEYLGGKVSPNELCAGHLAGGIDSCQGDSGGPLVCFEKDKYILQGVTSWGLGCALPNKPGVYVRVSRFVTWIEEIMRRN
modifications: plasmin trans-cinnamoyl acylated active site
notes: porcine plasmin acylated with p-amidinophenyl transcinnamate
As to B2, the “activity of the derivative relative to the original enzyme” value in the data set with Porcine Plasmin [3] is given as “less than 0.5%”. Besides, in the data set with Porcine Plasmin [4] (active site serine substituted porcine plasmin, pH 7.4, 37° C.), the “Deacylation rate, Porcine Plasmin K sec^-1 × 10^4” value is listed as 4.20 sec^-1 × 10^4. In the data set with Porcine Plasmin [4] (deacylation conditions), the time for reactivation entry is “two”.

(Values after US4285932A, “Enzyme derivatives for use in the treatment of venous thrombosis” (Beecham Group Limited, priority 1978, dated 1981).)
